From US6579848B1, “Depigmenting activity of agouti signal protein and peptides thereof” (The United States of America as represented by the …, priority 1995, dated 2003)

Columns and labels:
Assay type in all cases: cell-based, murine
tyrosinase [1] = assay: Northern blotting of tyrosinase RNA in melan-a cells; conditions: for RNA level of tyrosinase: 5 days
Method: These techniques were performed as described previously (Aroca et al., 1993). Briefly, 2.0 μg of mRNA, isolated using a total RNA isolation kit and mRNA purification kit (Promega, Madison, Wis.), were electrophoresed and then blotted to Sure-Blot nylon membranes (Oncor, Gaithersburg, Md.), hybridized with ^32P-labeled probes, dehybridized and rehybridized with other probes again as necessary. TYRS-J, the probe specific for tyrosinase, was kindly provided by Drs. H. Yamamoto and T. Takeuchi, Sendai, Japan and is described in Yamamoto et al Japan J. Genetics Vol 62:271-274, 1987. pMT4, specific for TRP1, was provided by Dr. S. Shibahara, Sendai, Japan and is described in Shibahara, S. et al Nucleic Acid Res. Vol 14:2413-2427, 1986. TRP2a, specific for TRP2 was provided by Dr. I. Jackson, Edinburgh, Scotland and is described in Jackson, I et al. EMBO Vol 11:527-535, 1992. gp100, specific for silver, was provided by Dr. Y. Kawakami, Bethesda, Md. and is described in Kawakami et al PNAS, Vol. 91, 6458-6462, 1994.
Recombinant agouti protein was purified from baculovirus system by Dr. Michael Ollmann in Dr. Gregory Barsh's laboratory by methods known in the art. 2×10^6 cells were seeded per 15 cm diameter dish. The medium was changed everyday, and fresh agouti protein and/or αMSH added everyday usually at 10 nM. To examine transcriptional regulation, total RNA was isolated and Northern blotting performed by methods described in Example 1. The A26 probe to the MSH-R was provided by Dr. R. Cone and is described in Mountjoy et al. Science 257:1248-1251, 1992. At the translational level, metabolic labeling was used in conjunction with immunoprecipitation as described in Example 1. Western blotting and enzyme assay was used to examine function.
First, it was determined whether the agouti protein had any effect on tyrosinase expression by Northern blotting. After 24 hours, the cells were harvested, total RNA isolated and hybridized with a probe for tyrosinase and detected by a phosphoimager. The activity of each band was measured by phosphoimager and the % control was corrected using GAPDH as a standard. […] It should be noted that in vivo, pheomelanin is synthesized within 24 hours after agouti RNA is apparent. Longer incubation times were also examined. 10 nM of agouti protein was added for 1, 2 or 4 days.
Total RNA was extracted from cells using an RNeasy total RNA isolation kit (QIAGEN, Catsworth, Calif.), following the manufacturer's instructions. 20 μg of total RNA was denatured, electrophoresed through 1.0% agarose gels, and transferred overnight at 23° C. to SureBlot nylon hybridization membranes (Oncor, Gaithersburg, Md.) in the standard manner. […]

tyrosinase [2] = assay: DOPA oxidase enzyme assay on extracts of treated melan-a cells; conditions: extracts of melan-a cells cultured 5 days; 10 nM
Method: (§1) Assays for melanogenic catalytic activities as described below were carried out at pH 6.8, 37° C. for 60 minutes. (1) Tyrosine hydroxylase activity was measured using the [^3H]tyrosine assay (Hearing and Ekel, 1976; Hearing, 1987). This method specifically measures the tritiated water produced during the hydroxylation of tyrosine to DOPA. (2) DOPA oxidase activity was measured using incorporation of [3-^14C]DOPA into acid-insoluble melanin as detailed previously (Aroca et al., 1993). (3) DOPAchrome tautomerase activity was measured by HPLC as the disappearance of DOPAchrome substrate and the production of DHICA rather than DHI; data are converted to pmol products by comparison with known standards. The HPLC assay was detailed previously (Palumbo et al., 1987; Tsukamoto et al., 1992). (4) DHI oxidase and DHICA oxidase activities were measured by HPLC as the disappearance of these substrates from reaction mixtures compared to controls for spontaneous auto-oxidation; data are converted to pmol by comparison with known standard (Aroca et al., 1993). (5) Melanin production was measured using incorporation of [^14C]tyrosine into acid-insoluble melanin, also as detailed previously (Hearing and Ekel, 1976; Hearing, 1987); pmol melanin produced are calculated from the radioactive product. […]

TRP2 = assay: DOPAchrome tautomerase enzyme assay on extracts of treated melan-a cells; conditions: extracts of melan-a cells cultured 5 days; 10 nM
Method: as §1

melan-a cells = assay: Melanin production assay on extracts of treated melan-a cells; conditions: extracts of melan-a cells cultured 5 days; 10 nM
Method: as §1

Molecule	RNA level of tyrosinase (tyrosinase [1]; 10 nM)	DOPA oxidase (tyrosinase [2])	DOPA chome tautomerase (TRP2)	melanin production (melan-a cells)	expression of tyrosinase (RNA) (tyrosinase [1]; 10 nM, 2 or 4 days incubation)	expression of tyrosinase (RNA, % control corrected using GAPDH) (tyrosinase [1]; 24 hours, 10 nM and 1 nM)
α-melanocyte stimulating hormone [MSH, reference compound]	almost a twofold increase	197.5 ± 17.4 pmol/μg protein/hr	555.0 pmol/μg protein/hr	6.3 ± 0.5 pmol/μg protein/hr		
agouti protein: Recombinant murine agouti signal protein purified from a baculovirus expression system (protein) MDVTRLLLATLVSFLCFFTVHSHLALEETLGDDRSLRSDSSMNSLDFSSVSIVALNKKSKKISRKEAEKRKRSSKKKASMKKVARPPPPSPCVATRDSCKPPAPACCDPCASCQCRFFGSACTCRVLNPNC	nearly a fivefold decrease	−2.6 ± 3.4 pmol/μg protein/hr	0.0 pmol/μg protein/hr	0.22 ± 0.0 pmol/μg protein/hr	complete inhibition by day 2	significant dose dependent decreases
